Data on 10 substances can be found in patent publication US20200405868A1, “GEL-FORMING POLYPEPTIDES” (priority 2018, published 2020).

Experiment [1] has as its target GnRH receptor (GnRHR or LHRHR) (UniProt P30968). Kind of experiment: cell-based or functional assay.
In experiment [2] the target is PTH receptor 1 (PTHR1) (UniProt Q03431). Kind of experiment: cell-based or functional assay.
The target of experiment [3] is melanocortin receptor 1 (MC1R) (UniProt Q01726). Kind of experiment: cell-based or functional assay.
Experiment [4] has as its target melanocortin receptor 4 (MC4R) (UniProt P32245). The experiment can be described thus: cell-based or functional assay.
For experiment [5], the target named is bradykinin receptor 2 (BDKRB2) (UniProt P30411). Kind of experiment: cell-based or functional assay.
In experiment [6] the target is FITC-labled GnRH molecule (a peptide) (UniProt P01148). Kind of experiment: Centricon filter release assay: FITC-GnRH that passed into the lower chamber with nongel-forming peptide at 1 mg/100 ml (control without carrier 72.50).
For experiment [7] the target is unchanged. The experiment can be described thus: Centricon filter release assay: FITC-GnRH that passed into the lower chamber with nongel-forming peptide at 1 mg/10 ml (control without carrier 72.50).
In experiment [8] the target is kappa opioid receptor (OPRK1) (UniProt P41145). The experiment can be described thus: cell-based or functional assay.
kappa opioid receptor (OPRK1), sequence (P41145 whole entry): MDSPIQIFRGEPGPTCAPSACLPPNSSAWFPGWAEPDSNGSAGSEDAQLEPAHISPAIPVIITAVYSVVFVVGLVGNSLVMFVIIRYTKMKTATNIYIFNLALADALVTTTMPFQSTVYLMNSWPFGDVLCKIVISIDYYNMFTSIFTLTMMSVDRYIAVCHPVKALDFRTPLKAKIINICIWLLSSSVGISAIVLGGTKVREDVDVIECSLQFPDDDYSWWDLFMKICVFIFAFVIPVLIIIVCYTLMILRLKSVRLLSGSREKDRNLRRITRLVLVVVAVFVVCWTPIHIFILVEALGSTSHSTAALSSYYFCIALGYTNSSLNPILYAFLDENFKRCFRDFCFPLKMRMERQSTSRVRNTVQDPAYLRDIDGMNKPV

bradykinin receptor 2 (BDKRB2), sequence (P30411 whole entry): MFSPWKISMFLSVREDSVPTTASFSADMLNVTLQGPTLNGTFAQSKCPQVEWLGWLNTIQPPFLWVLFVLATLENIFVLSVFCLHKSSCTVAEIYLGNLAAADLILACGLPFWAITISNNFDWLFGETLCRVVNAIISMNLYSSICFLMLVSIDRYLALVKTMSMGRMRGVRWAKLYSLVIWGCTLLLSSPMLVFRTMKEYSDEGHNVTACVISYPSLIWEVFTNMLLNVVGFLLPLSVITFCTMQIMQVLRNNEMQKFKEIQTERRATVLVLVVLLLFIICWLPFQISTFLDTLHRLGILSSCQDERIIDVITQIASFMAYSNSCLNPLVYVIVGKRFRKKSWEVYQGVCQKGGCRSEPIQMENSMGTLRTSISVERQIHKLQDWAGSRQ
melanocortin receptor 4 (MC4R), sequence (P32245 whole entry): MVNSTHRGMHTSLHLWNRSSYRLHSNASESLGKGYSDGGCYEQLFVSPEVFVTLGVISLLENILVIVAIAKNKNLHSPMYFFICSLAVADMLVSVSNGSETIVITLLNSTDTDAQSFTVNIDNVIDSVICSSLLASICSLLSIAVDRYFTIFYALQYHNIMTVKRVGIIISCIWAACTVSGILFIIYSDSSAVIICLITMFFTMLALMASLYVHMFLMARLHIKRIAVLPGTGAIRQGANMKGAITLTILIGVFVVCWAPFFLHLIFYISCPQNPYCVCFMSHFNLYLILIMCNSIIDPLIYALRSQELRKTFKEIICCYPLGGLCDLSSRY
melanocortin receptor 1 (MC1R), sequence (Q01726 whole entry): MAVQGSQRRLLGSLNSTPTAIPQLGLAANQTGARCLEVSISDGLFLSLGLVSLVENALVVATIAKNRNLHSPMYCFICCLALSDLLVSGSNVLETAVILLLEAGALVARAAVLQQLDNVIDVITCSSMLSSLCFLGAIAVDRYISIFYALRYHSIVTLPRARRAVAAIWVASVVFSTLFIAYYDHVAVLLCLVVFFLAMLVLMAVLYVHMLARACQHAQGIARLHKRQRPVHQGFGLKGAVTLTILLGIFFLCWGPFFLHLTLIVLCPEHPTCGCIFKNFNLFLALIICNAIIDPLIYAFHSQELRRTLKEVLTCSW
GnRH receptor (GnRHR or LHRHR), sequence (P30968 whole entry): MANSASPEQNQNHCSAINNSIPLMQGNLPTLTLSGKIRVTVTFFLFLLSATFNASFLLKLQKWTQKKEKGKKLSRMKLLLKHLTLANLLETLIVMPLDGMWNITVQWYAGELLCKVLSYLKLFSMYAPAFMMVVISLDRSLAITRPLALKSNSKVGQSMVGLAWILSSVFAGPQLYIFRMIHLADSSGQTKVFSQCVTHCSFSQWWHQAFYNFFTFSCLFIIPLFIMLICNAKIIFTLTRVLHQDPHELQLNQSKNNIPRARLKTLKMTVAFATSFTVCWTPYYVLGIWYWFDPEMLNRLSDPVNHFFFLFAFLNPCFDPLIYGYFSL
PTH receptor 1 (PTHR1), sequence (Q03431 27-593 limits assumed): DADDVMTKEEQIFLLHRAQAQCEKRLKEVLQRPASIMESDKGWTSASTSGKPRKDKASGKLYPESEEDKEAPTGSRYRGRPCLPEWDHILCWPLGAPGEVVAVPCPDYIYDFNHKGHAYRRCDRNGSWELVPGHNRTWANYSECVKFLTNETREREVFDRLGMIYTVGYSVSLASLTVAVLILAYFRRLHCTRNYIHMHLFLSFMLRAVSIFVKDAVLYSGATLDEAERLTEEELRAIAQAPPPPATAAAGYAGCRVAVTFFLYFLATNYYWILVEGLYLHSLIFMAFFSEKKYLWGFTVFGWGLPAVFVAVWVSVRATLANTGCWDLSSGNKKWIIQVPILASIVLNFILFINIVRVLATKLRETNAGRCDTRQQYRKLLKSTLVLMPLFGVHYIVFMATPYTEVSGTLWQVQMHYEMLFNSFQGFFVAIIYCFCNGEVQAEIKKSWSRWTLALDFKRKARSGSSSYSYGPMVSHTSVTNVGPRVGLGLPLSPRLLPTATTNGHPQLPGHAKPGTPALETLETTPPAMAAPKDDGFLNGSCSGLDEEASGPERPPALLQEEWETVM

For the substance “SEQ ID NO: 203, Pal-HSY-(D-Nal)-(D-Cpa)-(D-Pal)-SY-(D-Cit)-LRP-(D-Ala)-NH2, gel-forming GnRHR antagonist analog (peptide)”, in experiment [1], the IC50 (nM), GnRHR calcium flux antagonistic assay was below 0.51 nM and the Max Activity % of positive control, GnRHR calcium flux antagonistic assay (% of positive control) was found to be 109.
In experiment [2], “PTH(1-34) peptide (positive control) (from UniProt P01270 32-65)” showed an EC50 (nM), PTHR1 cAMP agonistic assay of 0.8 nM and a Max Activity % of positive control, PTHR1 cAMP agonistic assay (% of positive control) of 101.
In experiment [3], Melanotan II peptide (positive control) came in with an EC50 (nM), MC1R cAMP agonistic assay of 0.56 nM and a Max Activity % of positive control, MC1R cAMP agonistic assay (% of positive control) of 102. In experiment [4], this substance showed an EC50 (nM), MC4R cAMP agonistic assay of 2 nM and a Max Activity % of positive control, MC4R cAMP agonistic assay (% of positive control) of 101.
In experiment [5], “SEQ ID NO: 234, Pal-HSY-(D-Arg)-Arg-Pro-Hyp-Gly-Thi-Ser-(D-Tic)-Oic-Arg-NH2, conjugated bradykinin receptor antagonist (peptide)” returned an IC50 (nM), BDKRB2 arrestin antagonistic assay of 53.3 nM and a Max Activity % of positive control, BDKRB2 arrestin antagonistic assay (% of positive control) of 112.
As to “SEQ ID NO:133, Pal-VGSNTY-NH2, nongel-forming peptide”, the figures for the Fluorescent Reading (average of duplicates) in experiment [6] and in experiment [7] were 71 and 55.4, respectively.
On to Cetrorelix (positive control) (peptide), for which, in experiment [1], the IC50 (nM), GnRHR calcium flux antagonistic assay amounted to 0.08 nM and the Max Activity % of positive control, GnRHR calcium flux antagonistic assay (% of positive control) amounted to 91.4.
For “SEQ ID NO: 224, Pal-HSYS-Nle-EH-(D-Phe)-RWGKPV-NH2, conjugated gel-forming Afamelanotide (melanotan I) analog (peptide)”, in experiment [3], the EC50 (nM), MC1R cAMP agonistic assay was below 0.05 nM and the Max Activity % of positive control, MC1R cAMP agonistic assay (% of positive control) came out at 120.
In experiment [8], “SEQ ID NO: 214, Pal-SSPHSY-miniPEG-(D-Phe)-(D-Phe)-Trp-(D-Arg), gel-forming kappa opioid receptor agonist (peptide)” yielded an EC50 (nM), OPRK1 cAMP agonistic assay of 272 nM and a Max Activity % of positive control, OPRK1 cAMP agonistic assay (% of positive control) of 62.
Turning to “SEQ ID NO: 228, Pal-HSYRC-(D-Ala)-H-(D-Phe)-RWC-NH2, conjugated gel-forming setmelanotide analog (peptide)”, in experiment [4], the EC50 (nM), MC4R cAMP agonistic assay came to 0.15 nM and the Max Activity % of positive control, MC4R cAMP agonistic assay (% of positive control) amounted to 115.
In experiment [5], “HOE140 (a BKR2 antagonist), (D-Arg)-Arg-Pro-Hyp-Gly-Thi-Ser-(D-Tic)-Oic-Arg (peptide)” registered an IC50 (nM), BDKRB2 arrestin antagonistic assay of 132 nM and a Max Activity % of positive control, BDKRB2 arrestin antagonistic assay (% of positive control) of 100.
